Where no end group is shown, it is not given here. [ ]: non-standard residue; d: D form. ΔPro = O=C(O)[C@@H]1C=CCN1; Aze = O=C(O)[C@@H]1CCN1
biological target: EGLN2; assay: cell-based or functional assay

Row | Binder | Activity (%)*
1 | DTDLDAEAVAPYIPADDDFQ [DTDLDAEAVApYIPADDDFQ] | 26.3%
2 | DTDLDVEAYAPYIPADDDFQ (not fully specified; printed as DTDLDVEAYApYIPADDDFQ) [DTDLDVEAYApYIPADDDFQ] | 32.4%
3 | DTDLDCEALAPYIPADDDFQ [DTDLDCEALApYIPADDDFQ] | 48.8%
4 | DTDLDLEAHAPYIPADDDFQ [DTDLDLEAHApYIPADDDFQ] | 32.3%
5 | DTDLDLEAMAPYIPADDDFQ [DTDLDLEAMApYIPADDDFQ] | 55.8%
6 | DTDLDLEAAAPYIPADDDFQ [DTDLDLEAAApYIPADDDFQ] | 30.9%
7 | DTDLDWEALAPYIPADDDFQ (not fully specified; printed as DTDLDWEALApYIPADDDFQ) [DTDLDWEALApYIPADDDFQ] | 138%
8 | DTDLDGEALAPYIPADDDFQ [DTDLDGEALApYIPADDDFQ] | 32%
9 | DTDLDLEANAPYIPADDDFQ [DTDLDLEANApYIPADDDFQ] | 37.7%
10 | DTDLDVEAFAPYIPADDDFQ (not fully specified; printed as DTDLDVEAFApYIPADDDFQ) [DTDLDVEAFApYIPADDDFQ] | 37.5%
11 | DTDLDSEALAPYIPADDDFQ (not fully specified; printed as DTDLDSEALApYIPADDDFQ) [DTDLDSEALApYIPADDDFQ] | 23.8%
12 | DTDLDEEALAPYIPADDDFQ [DTDLDEEALApYIPADDDFQ] | 44.3%
13 | DTDLDPEALAPYIPADDDFQ (not fully specified; printed as DTDLDPEALApYIPADDDFQ) [DTDLDPEALApYIPADDDFQ] | 37.4%
14 | DTDLDVEAIAPYIPADDDFQ (not fully specified; printed as DTDLDVEAIApYIPADDDFQ) [DTDLDVEAIApYIPADDDFQ] | 36.6%
15 | DTDLDAEALAPYIPADDDFQ [DTDLDAEALApYIPADDDFQ] | 46.9%
16 | DTDLDLEAWAPYIPADDDFQ (not fully specified; printed as DTDLDLEAWApYIPADDDFQ) [DTDLDLEAWApYIPADDDFQ] | 42.4%
17 | DTDLDLEAKAPYIPADDDFQ [DTDLDLEAKApYIPADDDFQ] | 54.6%
18 | DTDLDLEAVAPYIPADDDFQ (not fully specified; printed as DTDLDLEAVApYIPADDDFQ) [DTDLDLEAVApYIPADDDFQ] | 86.8%
19 | DTDLDIEALAPYIPADDDFQ [DTDLDIEALApYIPADDDFQ] | 43.7%
20 | DTDLDDEALAPYIPADDDFQ [DTDLDDEALApYIPADDDFQ] | 42.8%
21 | DTDLDLEACAPYIPADDDFQ [DTDLDLEACApYIPADDDFQ] | 40.4%

biological target: EGLN1; assay: cell-based or functional assay

Row | Binder | Activity (%)*
22 | DTDLDAEAVAPYIPADDDFQ [DTDLDAEAVApYIPADDDFQ] | 34%
23 | DTDLDVEAYAPYIPADDDFQ (not fully specified; printed as DTDLDVEAYApYIPADDDFQ) [DTDLDVEAYApYIPADDDFQ] | 35.5%
24 | DTDLDCEALAPYIPADDDFQ [DTDLDCEALApYIPADDDFQ] | 44.7%
25 | DTDLDLEAHAPYIPADDDFQ [DTDLDLEAHApYIPADDDFQ] | 34%
26 | DTDLDLEAMAPYIPADDDFQ [DTDLDLEAMApYIPADDDFQ] | 63.7%
27 | DTDLDLEAAAPYIPADDDFQ [DTDLDLEAAApYIPADDDFQ] | 36.1%
28 | DTDLDWEALAPYIPADDDFQ (not fully specified; printed as DTDLDWEALApYIPADDDFQ) [DTDLDWEALApYIPADDDFQ] | 108%
29 | DTDLDGEALAPYIPADDDFQ [DTDLDGEALApYIPADDDFQ] | 37.3%
30 | DTDLDLEANAPYIPADDDFQ [DTDLDLEANApYIPADDDFQ] | 49.2%
31 | DTDLDVEAFAPYIPADDDFQ (not fully specified; printed as DTDLDVEAFApYIPADDDFQ) [DTDLDVEAFApYIPADDDFQ] | 34.1%
32 | DTDLDSEALAPYIPADDDFQ (not fully specified; printed as DTDLDSEALApYIPADDDFQ) [DTDLDSEALApYIPADDDFQ] | 34.7%
33 | DTDLDEEALAPYIPADDDFQ [DTDLDEEALApYIPADDDFQ] | 49.6%
34 | DTDLDPEALAPYIPADDDFQ (not fully specified; printed as DTDLDPEALApYIPADDDFQ) [DTDLDPEALApYIPADDDFQ] | 40.8%
35 | DTDLDVEAIAPYIPADDDFQ (not fully specified; printed as DTDLDVEAIApYIPADDDFQ) [DTDLDVEAIApYIPADDDFQ] | 45.3%
36 | DTDLDAEALAPYIPADDDFQ [DTDLDAEALApYIPADDDFQ] | 51%
37 | DTDLDLEAWAPYIPADDDFQ (not fully specified; printed as DTDLDLEAWApYIPADDDFQ) [DTDLDLEAWApYIPADDDFQ] | 50.4%
38 | DTDLDLEAKAPYIPADDDFQ [DTDLDLEAKApYIPADDDFQ] | 63.2%
39 | DTDLDLEAVAPYIPADDDFQ (not fully specified; printed as DTDLDLEAVApYIPADDDFQ) [DTDLDLEAVApYIPADDDFQ] | 99.2%
40 | DTDLDIEALAPYIPADDDFQ [DTDLDIEALApYIPADDDFQ] | 50.7%
41 | DTDLDDEALAPYIPADDDFQ [DTDLDDEALApYIPADDDFQ] | 51%
42 | DTDLDLEACAPYIPADDDFQ [DTDLDLEACApYIPADDDFQ] | 41.3%

biological target: EGLN3; assay: cell-based or functional assay

Row | Binder | Activity (%)*
43 | DTDLDAEAVAPYIPADDDFQ [DTDLDAEAVApYIPADDDFQ] | 35.6%
44 | DTDLDVEAYAPYIPADDDFQ (not fully specified; printed as DTDLDVEAYApYIPADDDFQ) [DTDLDVEAYApYIPADDDFQ] | 44.5%
45 | DTDLDCEALAPYIPADDDFQ [DTDLDCEALApYIPADDDFQ] | 75.8%
46 | DTDLDLEAHAPYIPADDDFQ [DTDLDLEAHApYIPADDDFQ] | 27%
47 | DTDLDLEAMAPYIPADDDFQ [DTDLDLEAMApYIPADDDFQ] | 94.3%
48 | DTDLDLEAAAPYIPADDDFQ [DTDLDLEAAApYIPADDDFQ] | 30.2%
49 | DTDLDWEALAPYIPADDDFQ (not fully specified; printed as DTDLDWEALApYIPADDDFQ) [DTDLDWEALApYIPADDDFQ] | 120%
50 | DTDLDGEALAPYIPADDDFQ [DTDLDGEALApYIPADDDFQ] | 40.9%
51 | DTDLDLEANAPYIPADDDFQ [DTDLDLEANApYIPADDDFQ] | 42.5%
52 | DTDLDVEAFAPYIPADDDFQ (not fully specified; printed as DTDLDVEAFApYIPADDDFQ) [DTDLDVEAFApYIPADDDFQ] | 44.2%
53 | DTDLDSEALAPYIPADDDFQ (not fully specified; printed as DTDLDSEALApYIPADDDFQ) [DTDLDSEALApYIPADDDFQ] | 61.3%
54 | DTDLDEEALAPYIPADDDFQ [DTDLDEEALApYIPADDDFQ] | 80.8%
55 | DTDLDPEALAPYIPADDDFQ (not fully specified; printed as DTDLDPEALApYIPADDDFQ) [DTDLDPEALApYIPADDDFQ] | 76.6%
56 | DTDLDVEAIAPYIPADDDFQ (not fully specified; printed as DTDLDVEAIApYIPADDDFQ) [DTDLDVEAIApYIPADDDFQ] | 43.3%
57 | DTDLDAEALAPYIPADDDFQ [DTDLDAEALApYIPADDDFQ] | 87.2%
58 | DTDLDLEAWAPYIPADDDFQ (not fully specified; printed as DTDLDLEAWApYIPADDDFQ) [DTDLDLEAWApYIPADDDFQ] | 37.3%
59 | DTDLDLEAKAPYIPADDDFQ [DTDLDLEAKApYIPADDDFQ] | 44.1%
60 | DTDLDLEAVAPYIPADDDFQ (not fully specified; printed as DTDLDLEAVApYIPADDDFQ) [DTDLDLEAVApYIPADDDFQ] | 117%
61 | DTDLDIEALAPYIPADDDFQ [DTDLDIEALApYIPADDDFQ] | 149%
62 | DTDLDDEALAPYIPADDDFQ [DTDLDDEALApYIPADDDFQ] | 65%
63 | DTDLDLEACAPYIPADDDFQ [DTDLDLEACApYIPADDDFQ] | 49.4%

biological target: EGLN2; assay: cell-based or functional assay; remark: another data set of the same source

Row | Binder | Activity (%)*
64 | DTDLDAEAAA[Aze]YIPADDDFQ [DTDLDAEAAA8YIPADDDFQ] | 4.16%
65 | DTDLDVEAYA[Aze]YIPADDDFQ [DTDLDVEAYA8YIPADDDFQ] | 27.2%
66 | DTDLDVEAFA[Aze]YIPADDDFQ [DTDLDVEAFA8YIPADDDFQ] | 13.9%
67 | DTDLDAEATA[Aze]YIPADDDFQ [DTDLDAEATA8YIPADDDFQ] | 1.55%
68 | DTDLDTEAYA[Aze]YIPADDDFQ [DTDLDTEAYA8YIPADDDFQ] | 17%
69 | DTDLDIEAIA[Aze]YIPADDDFQ [DTDLDIEAIA8YIPADDDFQ] | 10%
70 | DTDLDTEAFA[Aze]YIPADDDFQ [DTDLDTEAFA8YIPADDDFQ] | 8.9%
71 | DTDLDTEALA[Aze]YIPADDDFQ [DTDLDTEALA8YIPADDDFQ] | 8.52%
72 | DTDLDLEALA[Aze]YIPADDDFQ [DTDLDLEALA8YIPADDDFQ] | 62%
73 | DTDLDLEALA[ΔPro]YIPADDDFQ [DTDLDLEALA4YIPADDDFQ] | 173%

biological target: EGLN1; assay: cell-based or functional assay; remark: another data set of the same source

Row | Binder | Activity (%)*
74 | DTDLDAEAAA[Aze]YIPADDDFQ [DTDLDAEAAA8YIPADDDFQ] | 10.3%
75 | DTDLDVEAYA[Aze]YIPADDDFQ [DTDLDVEAYA8YIPADDDFQ] | 32.3%
76 | DTDLDVEAFA[Aze]YIPADDDFQ [DTDLDVEAFA8YIPADDDFQ] | 21.2%
77 | DTDLDAEATA[Aze]YIPADDDFQ [DTDLDAEATA8YIPADDDFQ] | 7.6%
78 | DTDLDTEAYA[Aze]YIPADDDFQ [DTDLDTEAYA8YIPADDDFQ] | 25.1%
79 | DTDLDIEAIA[Aze]YIPADDDFQ [DTDLDIEAIA8YIPADDDFQ] | 18.3%
80 | DTDLDTEAFA[Aze]YIPADDDFQ [DTDLDTEAFA8YIPADDDFQ] | 17.4%
81 | DTDLDTEALA[Aze]YIPADDDFQ [DTDLDTEALA8YIPADDDFQ] | 11.4%
82 | DTDLDLEALA[Aze]YIPADDDFQ [DTDLDLEALA8YIPADDDFQ] | 78.9%
83 | DTDLDLEALA[ΔPro]YIPADDDFQ [DTDLDLEALA4YIPADDDFQ] | 124%

biological target: EGLN3; assay: cell-based or functional assay; remark: another data set of the same source

Row | Binder | Activity (%)
84 | DTDLDVEAYA[Aze]YIPADDDFQ [DTDLDVEAYA8YIPADDDFQ] | 33.5%
85 | DTDLDVEAFA[Aze]YIPADDDFQ [DTDLDVEAFA8YIPADDDFQ] | 24.5%
86 | DTDLDTEAYA[Aze]YIPADDDFQ [DTDLDTEAYA8YIPADDDFQ] | 29.7%
87 | DTDLDIEAIA[Aze]YIPADDDFQ [DTDLDIEAIA8YIPADDDFQ] | 31.2%
88 | DTDLDTEAFA[Aze]YIPADDDFQ [DTDLDTEAFA8YIPADDDFQ] | 18.7%
89 | DTDLDVEAVA[Aze]YIPADDDFQ [DTDLDVEAVA8YIPADDDFQ] | 20.6%
90 | DTDLDTEAVA[Aze]YIPADDDFQ [DTDLDTEAVA8YIPADDDFQ] | 10.3%
91 | DTDLDTEALA[Aze]YIPADDDFQ [DTDLDTEALA8YIPADDDFQ] | 80.1%
92 | DTDLDLEALA[Aze]YIPADDDFQ [DTDLDLEALA8YIPADDDFQ] | 169%
93 | DTDLDLEALA[ΔPro]YIPADDDFQ [DTDLDLEALA4YIPADDDFQ] | 74.4%
